# Measurements taken from patent US20220089727A1 (CHANGCHUN GENESCIENCE PHARMACEUTICAL, published 2022).
# Numbering of substitutions follows the chain as printed.
# T1: monkey CD47ECD-linker peptide-7his (monkey)
# T1 construct: also called Monkey CD47-his
# T1 chain: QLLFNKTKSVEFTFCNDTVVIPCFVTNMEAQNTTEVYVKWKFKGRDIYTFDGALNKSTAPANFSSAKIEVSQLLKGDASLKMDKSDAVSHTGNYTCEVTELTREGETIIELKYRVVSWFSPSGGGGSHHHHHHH
# B1: B6H12 (commercialized CD47 antibody, purchased from Abcam, catalog No. ab3283) (antibody)
# chain: EVQLVESGGDLVKPGGSLKLSCAASGFTFSGYGMSWVRQTPDKRLEWVATITSGGTYTYYPDSVKGRFTISRDNAKNTLYLQIDSLKSEDTAIYFCARSLAGNAMDYWGQGTSVTVSSGGGGSGGGGSGGGGSDIVMTQSPATLSVTPGDRVSLSCRASQTISDYLHWYQQKSHESPRLLIKFASQSISGIPSRFSGSGSGSDFTLSINSVEPEDVGVYYCQNGHGFPRTFGGGTKLEIK
# B2: 059-1.20.1 (antibody, mouse IgG1, V domains shown)
# VH: EVQLQQSGPELVKPGASVNMSCKASGYTFTNYFLHWVKQKPGQGLEWIGYINPYNDGTNYNENFKGKATLTSDKSSSTAYMELSSLTSEDSAVYYCAKGGWFSMDYWGQGTSVTVSS
# VL: DVVMTQTPLSLPVSLGDQASISCRSSQSLVHSNGKTYLQWYLQKPGQSPKLLIYKVSNRFSGVPDRFSGSGSGTDFTLKISRVEAEDLGVYFCSQSTHVYTFGGGTKLEIK
# notes: also called 059-1.20.1 purified antibody
# B3: 059-1.82.1 (antibody, mouse IgG3, V domains shown)
# VH: B2 VH with N19K, F33V, L34M, N63K
# VL: B2 VL
# B4: 059-1.30.1 (antibody, mouse IgG1, V domains shown)
# VH: EVQLQQSGPELVKPGASVRMSCKASGYTFTNYVMHWVKQKPGQGLEWIGYINPYNDGTKYSEKFKGKATLTSDKSSITAYMELSSLTSEDSAVYYCAKGGLFTFDYWGQGTTLTVSS
# VL: DVVMTQTPLSLPVSLGDQASISCRSSQSLVHSKGNTYLHWYLQKPGQSPKLLIYRVSNRFSGVPDRFSGSGSGTDFTLKISRVEAEDLGVYFCSQSTHVPFTFGSGTKLEIK
# notes: also called 059-1.30.1 purified antibody
# B5: 059-1.43.1 (antibody, mouse IgG1, V domains shown)
# VH: QVQLQQSGAELVRPGASVTLSCKASGYTFTDYEMHWVKQTPVHGLEWIGAIDPETGGTAYNQKFKGKATLTADKSSSTAYMELRSLTSEDSAVYYCTRGTPYAMDYWGQGTSVTVSS
# VL: B4 VL with K33N, R55K, F101W, S105G
# notes: also called 059-1.43.1 purified antibody
# B6: 059-1.51.2 (antibody, mouse IgM, V domains shown)
# VH: EVQLQQSGPELVKPGASVKMSCKASGYTFTNYVMHWMKQKPGQGLEWIGYINPYNDDTKYNEKFKDRATLTSDKSSSTAYMELSSLTSEDSAVYYCAKGGYYSMDYWGQGTSVTVSS
# VL: B4 VL with R55K
# notes: Mouse hybridoma antibody; light chain type kappa
# B7: 059-1.11.1 (antibody, mouse IgM, V domains shown)
# VH: B5 VH
# VL: B4 VL with K33N, R55K, D65E, F101W, S105G
# notes: Mouse hybridoma antibody; the subclass paragraph gives the light chain type as kappa; also called 059-1.11.1 purified antibody
# B8: 059-1.100.5 (antibody, mouse IgM, V domains shown)
# VH: B5 VH with K63N
# VL: B4 VL with K33N, R55K, F101W, S105G
# notes: Mouse hybridoma antibody; light chain type kappa; also called 059-1.100.5 purified antibody
# Biological target: T2, CD47 on the surface of Jurkat cells (human, UniProt Q08722 19-323)
# Test: cell-based or functional assay
row,phagocytic index,Binder
1,20 Jurkat cells phagocytized per 100 macrophages,B1
2,43 Jurkat cells phagocytized per 100 macrophages,B2
3,74 Jurkat cells phagocytized per 100 macrophages,B3
4,70 Jurkat cells phagocytized per 100 macrophages,B4
5,79 Jurkat cells phagocytized per 100 macrophages,B5

# Biological target: T2, CD47 on the surface of Jurkat cells
# Test: cell-based or functional assay
# Remark: another data set of the same source
row,Apoptotic rate (%),Binder
1,8%,B1
2,33%,B2
3,24%,B3
4,48%,B4
5,37%,B5

# Biological target: T3, human CD47ECD-linker peptide-7his (human, UniProt Q08722 19-139)
# T3 construct: also called hCD47-his; human CD47-his
# Test: ELISA, hCD47-his coated at 1 µg/ml, cell culture supernatant
row,OD450,Binder
1,4 OD450,B2
2,4 OD450,B3
3,4 OD450,B4
4,0.771 OD450,B6
5,4 OD450,B5
6,3.67 OD450,B7
7,0.81 OD450,B8

# Biological target: T1, monkey CD47ECD-linker peptide-7his
# Test: ELISA, monkey CD47-his coated at 1 µg/ml, cell culture supernatant
row,OD450,Binder
1,4 OD450,B2
2,3.9 OD450,B3
3,4 OD450,B4
4,0.634 OD450,B6
5,4 OD450,B5
6,4 OD450,B7
7,0.617 OD450,B8

# Biological target: T4, human CD47 (analyte in the Biacore assay) (human, UniProt Q08722 19-139, limits assumed)
# T4 construct: also called human CD47 protein
# Test: SPR (Biacore T200), antibody captured by anti-mouse Fc, human CD47 as analyte
Kd,koff,kon,Binder
27.5 nM,0.00364 s⁻¹,132000 M⁻¹ s⁻¹,B1
25.3 nM,0.00548 s⁻¹,217000 M⁻¹ s⁻¹,B2
14.2 nM,0.00364 s⁻¹,256000 M⁻¹ s⁻¹,B3
30.1 nM,0.0128 s⁻¹,424000 M⁻¹ s⁻¹,B4
27.3 nM,0.0101 s⁻¹,370000 M⁻¹ s⁻¹,B6
28.3 nM,0.00666 s⁻¹,236000 M⁻¹ s⁻¹,B5
15.5 nM,0.00402 s⁻¹,260000 M⁻¹ s⁻¹,B7
44 nM,0.0069 s⁻¹,157000 M⁻¹ s⁻¹,B8

# Biological target: T2, CD47 on the surface of Jurkat cells
# Test: flow cytometry on Jurkat cells, hybridoma supernatant, anti-mouse IgG Fc FITC
row,MFI,Binder
1,15300 MFI,B2
2,9550 MFI,B3
3,9950 MFI,B4
4,144 MFI,B6
5,18500 MFI,B5
6,6630 MFI,B7
7,216 MFI,B8

# Biological target: T5, human CD47-linker peptide-hIgG1Fc (human)
# T5 construct: also called Human CD47-hFc; human CD47-hFc
# Test: competition ELISA: human CD47-hFc coated, blocked ligand human SIRP-his
row,IC50 (read off the curve),Binder
1,~1 µg/mL,B1
2,~1 µg/mL,B2
3,~1 µg/mL,B3
4,~1 µg/mL,B4
5,~0.9 µg/mL,B5

# Biological target: T5, human CD47-linker peptide-hIgG1Fc
# Test: competition ELISA: CD47-hFc coated, antibody titrated against human SIRP-his (competitor), anti-His detection
row,EC50,Binder
1,1190 nM,B2
2,1030 nM,B3
3,1030 nM,B4
4,850 nM,B5
5,2340 nM,B7
